Assays:
[1] = target: T1, full-length TRAK2 (TRAK2^1–914) (human, UniProt O60296 1-914); experiment: co-IP; purified proteins, 10 µg each, GFP-Trap beads, MB buffer with 100 mM NaCl and BSA; KIF5B-GFP-SNAPf, Miro1 1-592 and TRAK1 1-532, full-length TRAK1 or full-length TRAK2; with GTPγS or GDP; 0, 100 nM or 2 mM Ca2+; details: both partners purified
T1 construct: TRAK2, human, residues 1-914, full length; source: HEK 293 F GNTI-/- cells, PEI transfection, purified (TRAK purification procedure); not shown: His6-ZZ, N-terminal, cleaved; SNAP-tag or GFP, C-terminal, kept
T1 sequence (looked up): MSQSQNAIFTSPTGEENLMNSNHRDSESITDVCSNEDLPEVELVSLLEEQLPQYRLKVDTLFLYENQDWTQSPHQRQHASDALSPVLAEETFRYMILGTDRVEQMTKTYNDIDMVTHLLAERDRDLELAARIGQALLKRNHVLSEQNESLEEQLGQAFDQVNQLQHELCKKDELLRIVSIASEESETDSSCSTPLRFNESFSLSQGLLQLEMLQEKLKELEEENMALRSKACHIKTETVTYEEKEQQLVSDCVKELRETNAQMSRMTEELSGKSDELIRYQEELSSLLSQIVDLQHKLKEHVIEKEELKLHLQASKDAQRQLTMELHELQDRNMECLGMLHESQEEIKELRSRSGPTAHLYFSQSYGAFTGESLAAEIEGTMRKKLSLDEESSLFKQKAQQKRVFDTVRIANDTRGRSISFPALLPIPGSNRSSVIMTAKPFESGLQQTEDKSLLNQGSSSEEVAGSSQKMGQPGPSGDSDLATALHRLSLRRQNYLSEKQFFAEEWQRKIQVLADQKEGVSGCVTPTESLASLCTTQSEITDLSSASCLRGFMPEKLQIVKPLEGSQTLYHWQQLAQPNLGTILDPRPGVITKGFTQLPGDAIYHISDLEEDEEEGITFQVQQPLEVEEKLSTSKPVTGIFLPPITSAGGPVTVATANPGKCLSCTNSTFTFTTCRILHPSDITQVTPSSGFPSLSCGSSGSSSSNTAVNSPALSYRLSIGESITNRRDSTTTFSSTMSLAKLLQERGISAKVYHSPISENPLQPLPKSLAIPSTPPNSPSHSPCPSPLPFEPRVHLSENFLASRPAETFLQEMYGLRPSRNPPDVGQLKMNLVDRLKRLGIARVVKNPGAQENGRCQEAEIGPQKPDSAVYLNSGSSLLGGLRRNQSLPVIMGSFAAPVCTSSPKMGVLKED

[2] = target: T2, full-length TRAK1 (TRAK1^1–953) (human, UniProt Q9UPV9 1-953); experiment: single-molecule TIRF colocalisation on microtubules; three-colour imaging of Alexa488-KIF5B, LD555-TRAK1 1-532 (or full-length TRAK1) and LD655-Miro1 1-592; 10 nM MAP7; 0, 0.1 and 2 mM Ca2+; details: both partners purified
T2 construct: TRAK1, human, residues 1-953, full length; source: HEK 293 F GNTI-/- cells, PEI transfection, purified (TRAK purification procedure); not shown: His6-ZZ, N-terminal, cleaved; SNAP-tag or GFP, C-terminal, kept
T2 sequence (looked up): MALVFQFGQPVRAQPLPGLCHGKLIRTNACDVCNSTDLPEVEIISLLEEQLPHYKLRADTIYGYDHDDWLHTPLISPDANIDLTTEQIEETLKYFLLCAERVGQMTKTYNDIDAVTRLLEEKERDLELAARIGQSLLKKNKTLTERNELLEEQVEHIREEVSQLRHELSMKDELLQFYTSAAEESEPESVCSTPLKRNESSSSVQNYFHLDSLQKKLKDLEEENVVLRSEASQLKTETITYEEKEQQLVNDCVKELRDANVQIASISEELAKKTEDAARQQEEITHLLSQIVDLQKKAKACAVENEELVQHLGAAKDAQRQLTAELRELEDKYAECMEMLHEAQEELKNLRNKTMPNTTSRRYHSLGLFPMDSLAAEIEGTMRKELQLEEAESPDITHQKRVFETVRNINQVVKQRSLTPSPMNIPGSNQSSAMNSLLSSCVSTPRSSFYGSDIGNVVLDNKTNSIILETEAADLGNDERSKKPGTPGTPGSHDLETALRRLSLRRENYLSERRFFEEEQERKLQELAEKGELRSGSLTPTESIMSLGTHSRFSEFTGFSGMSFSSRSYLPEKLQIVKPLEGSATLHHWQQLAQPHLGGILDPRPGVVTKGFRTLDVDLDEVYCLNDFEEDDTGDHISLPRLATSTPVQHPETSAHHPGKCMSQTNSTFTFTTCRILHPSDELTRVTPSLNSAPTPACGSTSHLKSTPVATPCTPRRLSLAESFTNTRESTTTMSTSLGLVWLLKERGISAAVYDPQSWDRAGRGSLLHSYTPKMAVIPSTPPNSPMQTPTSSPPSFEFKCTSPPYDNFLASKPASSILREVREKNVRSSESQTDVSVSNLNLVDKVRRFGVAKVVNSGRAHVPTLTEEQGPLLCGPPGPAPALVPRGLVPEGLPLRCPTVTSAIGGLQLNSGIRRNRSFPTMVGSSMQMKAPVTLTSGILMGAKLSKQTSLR

B1: Miro1^1–592 (Miro1^1–592-SNAP-psc-StrepII) (domain or fragment, human, UniProt Q8IXI2 1-592, looked up)
chain: MKKDVRILLVGEPRVGKTSLIMSLVSEEFPEEVPPRAEEITIPADVTPERVPTHIVDYSEAEQSDEQLHQEISQANVICIVYAVNNKHSIDKVTSRWIPLINERTDKDSRLPLILVGNKSDLVEYSSMETILPIMNQYTEIETCVECSAKNLKNISELFYYAQKAVLHPTGPLYCPEEKEMKPACIKALTRIFKISDQDNDGTLNDAELNFFQRICFNTPLAPQALEDVKNVVRKHISDGVADSGLTLKGFLFLHTLFIQRGRHETTWTVLRRFGYDDDLDLTPEYLFPLLKIPPDCTTELNHHAYLFLQSTFDKHDLDRDCALSPDELKDLFKVFPYIPWGPDVNNTVCTNERGWITYQGFLSQWTLTTYLDVQRCLEYLGYLGYSILTEQESQASAVTVTRDKKIDLQKKQTQRNVFRCNVIGVKNCGKSGVLQALLGRNLMRQKKIREDHKSYYAINTVYVYGQEKYLLLHDISESEFLTEAEIICDVVCLVYDVSNPKSFEYCARIFKQHFMDSRIPCLIVAAKSDLHEVKQEYSISPTDFCRKHKMPPPQAFTCNTADAPSKDIFVKLTTMAMYPHVTQADLKSSTF
modifications: LD655 dye on the SNAP tag in motility assays
notes: mitochondrial Rho GTPase 1 (Miro1), human, residues 1-592, lacks the transmembrane domain; A PreScission site (psc) stands between SNAP and StrepII; no cleavage is told; also called Miro1^1–592-StrepII; Miro1^1–592-SNAPf-StrepII; source: purified (Streptactin Sepharose, eluted with desthiobiotin); not shown: SNAP, C-terminal, kept; StrepII, C-terminal, kept
Does B1 bind [1]?
Result: binds

Does B1 bind [2]?
Result: binds

Source: article PMC10011603, “TRAK adaptors regulate the recruitment and activation of dynein and kinesin in mitochondrial transport” (Nature Communications, 2023)
